According to patent US20120207760A1:

How the values were obtained:
[1] = target: M2 protein of influenza A/Puerto Rico/8/34 (H1N1), on inactivated virus (Influenza A virus A/Puerto Rico/8/34 (H1N1)) (UniProt P06821); test: surface plasmon resonance, Fab fragment on influenza virus
[2] = target: M2 protein of influenza A/Japan/305/57 (H2N2), on inactivated whole virions (Influenza A virus A/Japan/305/1957 (H2N2)) (UniProt Q6XU12); test: ELISA, positive control antibody on inactivated whole virions
[3] = target: recombinant soluble homotrimeric HA of A/Common magpie/Hong Kong/5052/07 - H5N1 (Influenza A virus A/common magpie/Hong Kong/5052/2007 (H5N1)); test: micro-array; captured IgG, V5-tagged trimeric HA

TCN-032 (8I10) (antibody), sequence (VH): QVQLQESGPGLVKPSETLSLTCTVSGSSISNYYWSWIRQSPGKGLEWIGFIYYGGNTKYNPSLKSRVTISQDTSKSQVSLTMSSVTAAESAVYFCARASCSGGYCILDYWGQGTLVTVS
TCN-032 (8I10) (antibody), sequence (VL): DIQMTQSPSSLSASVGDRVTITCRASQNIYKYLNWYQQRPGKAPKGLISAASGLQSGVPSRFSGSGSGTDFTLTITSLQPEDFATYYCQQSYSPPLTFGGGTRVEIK

With ch14C2 Fab fragment the Kd [1] was 4 µM, the koff [1] was 0.0018 s⁻¹ and the kon [1] was 500 M⁻¹ s⁻¹.
TCN-032 (8I10) (antibody) showed an OD450 [2] of 3.61 OD450.
With TCN-202 (2N9) (antibody) the Trimeric HA Binding: RLU [3] was 1370 RLU.
